Data as given in paper PMC5300068, “Flexibility in Mannan-Binding Lectin-Associated Serine Proteases-1 and -2 Provides Insight on Lectin Pathway Activation” (Structure(London, England:1993), 2017).

Target: the molecule itself
Experiment: AUC; sedimentation velocity, 50,000 rpm, absorbance optics, c(s) analysis; physiological ionic strength, buffers with Ca2+ or EDTA; 0.8-2.2 uM for full-length MASPs; dimer to monomers

B1: rat MASP-2 CUB1-EGF-CUB2 (MASP-2 3D) (domain or fragment)
chain: SKWPEPVFGRLVSLGFPEKYGNHQDRSWTLTAPPGFRLRLYFTHFNLELSYRCEYDFVKLTSGTKVLATLCGQESTDTERAPGNDTFYSLGPSLKVTFHSDYSNEKPFTGFEAFYAAEDVDECRTSLGDSVPCDHYCHNYLGGYYCSCRVGYILHQNKHTCSALCSGQVFTGRSGFLSSPEYPQPYPKLSSCAYNIRLEEGFSITLDFVESFDVEMHPEAQCPYDSLKIQTDKREYGPFCGKTLPPRIETDSNKVTITFTTDESGNHTGWKIHYTSTAQP
modifications: N-glycosylated (glycosylation sites shown in Figure 1)
notes: Homodimer; production details are in the Supplemental Information; source: Chinese hamster ovary cells, purified (gel filtration, Superdex 200 16/60); not shown: His6, C-terminal, kept
**Q.** Which “stoichiometry N” value does the source give for B1 here?
**A.** The value was 2.
